Source: patent US20240269276A1 (HARBOUR BIOMED SHANGHAI, published 2024)
Substitutions are numbered along the chain they refer to. In names and notes the source's numbering stands.

B1: PR000960 (antibody, human IgG1, V domains shown)
VH: QVQLVESGGGVVQPGMSLRLSCAASGFNFSNYGMYWVRQAPGKGQEWVAIIWYDGTKKHYADSVKGRFTISRDNSKNTLYLEMNSLRVEDTAVYYCAKNRAIFGVVPDASDIRGQGTMVTVSS
notes: Heavy-chain-only antibody (HCAb): human VH fused to human IgG1 Fc; no light chain; also called anti-PD-L1 HCAb antibody
B2: PR001061 (antibody, human IgG1, V domains shown)
VH: B1 VH with Q1E, V5L, M16R, N31S, T56S, K57R, V88A, V93M
notes: as for B1
B3: PR001058 (antibody, human IgG1, V domains shown)
VH: B1 VH with Q1E, M16R, N28T, N31S
notes: as for B1
B4: PR001065 (antibody, human IgG1, V domains shown)
VH: B1 VH with Q1E, M16R, N31S
notes: as for B1
B5: PR006246 (antibody, human IgG1, V domains shown)
VH: B1 VH with N28D, N31S, I50S, W52R, D54T, K57E, V106I, A109D
notes: The HC entry is used
B6: PR005878 (antibody, human IgG1, V domains shown)
VH: B1 VH with N28T, N31S, I50S, W52R, D54T, K57E, I102L, V106I, A109D
notes: The HC entry is used
B7: PR006248 (antibody, human IgG1, V domains shown)
VH: B1 VH with N28D, N31S, I50S, W52R, D54T, K57E, I102L, V106I, A109D
notes: The HC entry is used
B8: PR002079 (antibody, human IgG1, V domains shown)
VH: B1 VH with N28T
notes: HCAb; also called PTM variant of PR000960 (N28T)
B9: PR003836 (antibody, human IgG1, kappa, L234A L235A, V domains shown)
VH: QVQLVESGGGVVQPGRSLRLSCAASGFTFSSYDMHWVRQAPGKGLEWVASTWYDASKKYYADSVKGRFTISRDNSKNTLYLQMNSLRAEDTAVYYCAKGGDLLTGPNAFDIWGQGTMVTVSS
VL: DIQMTQSPSTLSASVGDRVTITCRASQSISSWLAWYQQKPGKAPKLLIYKASSLESGVPSRFSGSGSGTEFTLTISSLQPDDFATYYCQQYDNYENTFGQGTKLEIKR
notes: Anti-CD73 IgG (human IgG1 constant region, human Ig kappa), PTM removed; also called anti-CD73 antibody PR003836; anti-CD73 H2L2 antibody
B10: PR001408 (antibody, human IgG1, kappa, L234A L235A, V domains shown)
VH: QVQLVESGGGVVQPGRSLRLSCAASGFTFYSYGMHWVRQTPGKGLEWVALIWYDGSNNYYADSVKGRFTISRDNSKNTLYLQMNSLRAEDTAVYYCATERSSSFYYYYGMDVWGQGTTVTVSS
VL: DIQLTQSPSFLSTSVGDRVTITCRASQGISSYLAWYQQKPGKAPKLLIYAASTLQSGVPSRFSGSGSGTEFTLTISSLQPEDFATYYCQQLNSYPYTFGQGTELEIKR
notes: Anti-CD73 IgG (human IgG1 constant region, human Ig kappa), PTM removed; also called anti-CD73 antibody PR001408; anti-CD73 H2L2 antibody
B11: PR005872 (antibody, human IgG1, V domains shown)
VH: B1 VH with N28T, N31S, I50S, W52R, D54T, K57E, V106I, A109D
notes: The HC entry is used
B12: PR005875 (antibody, human IgG1, V domains shown)
VH: B1 VH with N28T, N31S, I50S, W52R, D54T, K57E, I102L, V106I
notes: The HC entry is used
B13: PR005263 (antibody, human IgG1, V domains shown)
VH: B1 VH with N28T, N31S, I50S, W52R, D54T, K57E
notes: The HC entry is used

Target: T1, human PD-L1 on CHO-K1 cells overexpressing human PD-L1 (human, UniProt Q9NZQ7 19-290)
T1 construct: whole, on cells; also called CHO-K1/hPD-L1; CHO-K1-hPD-L1
Test: flow cytometry on CHO-K1 cells overexpressing human PD-L1 (CHO-K1/hPD-L1)
Experimental: (§1) In the example, in order to study the in vitro binding activity of the PD-L1 antigen-binding protein to human/cynomolgus monkey PD-L1, cell-level binding experiments were performed using CHO-K1 cell strains overexpressing human PD-L1 (CHO-K1/hPD-L1, GenScript, M00543) or CHO-K1 cell strains overexpressing cynomolgus monkey PD-L1 (CHO-K1/cynoPD-L1, GenScript, M00573). Briefly, the PD-L1 cells were digested and resuspended in an F-12K complete medium, and the cell density was adjusted to 1×10⁶ cells/mL. The cells were seeded in a 96-well V-bottom plate (Corning, 3894) at 100 μL/well, followed by the addition of the test antigen-binding proteins serially diluted 5-fold with concentrations that were twice the final concentrations at 100 μL/well. The mixtures were well mixed. The highest final concentration of the antigen-binding proteins was 100 nM. A total of 8 concentrations were set. An isotype antibody hIgG1 iso was used as a control. The cells were incubated away from light at 4° C. for 1 h. Thereafter, the cells in each well were rinsed twice with 100 μL of pre-cooled PBS, and centrifuged at 500 g at 4° C. for 5 min, and then the supernatant was discarded. Then 100 μL of a fluorescent secondary antibody (goat anti-human IgG (H+L) secondary antibody, Alexa Fluor 488 conjugate, Invitrogen, A11013, diluted at the ratio of 1:1000) was added to each well. The plate was incubated away from light at 4° C. for 30 min. The cells in each well were then rinsed twice with 200 μL of pre-cooled PBS and centrifuged at 500 g at 4° C. for 5 min, and then the supernatant was discarded. Finally, a pre-cooled PBS was added at 200 μL/well to resuspend the cells. Fluorescence signal values were read using a BD FACS CANTOII. Fluorescence signal values were read using a flow cytometer BD FACS CANTOII or FACS ACEA, and the data were processed and analyzed using FlowJo v10 (FlowJo, LLC) software. The data were processed and analyzed by plotting using GraphPad Prism 8 software, and binding curves, EC50 values and other parameters were acquired through four-parameter nonlinear fitting.

T1 sequence (Q9NZQ7 19-290): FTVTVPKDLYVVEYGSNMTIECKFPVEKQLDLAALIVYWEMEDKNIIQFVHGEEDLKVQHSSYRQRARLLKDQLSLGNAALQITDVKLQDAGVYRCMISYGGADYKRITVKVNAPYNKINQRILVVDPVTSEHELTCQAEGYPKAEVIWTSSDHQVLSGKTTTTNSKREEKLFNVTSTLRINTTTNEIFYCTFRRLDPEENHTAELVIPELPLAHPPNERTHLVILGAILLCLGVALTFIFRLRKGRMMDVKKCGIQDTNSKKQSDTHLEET

In order of rising EC50:
1. B2  2.31 nM
2. B4  2.67 nM
3. B1  3 nM
4. B3  3.33 nM

In order of rising “Maximum MFI” value:
1. B4  3000 MFI
2. B1  3080 MFI
3. B2  3090 MFI

Target: T1, human PD-L1 on CHO-K1 cells …
Test: flow cytometry on CHO-K1 cells overexpressing human PD-L1 (CHO-K1/hPD-L1) [continued) F]
Experimental: as §1

In order of falling EC50:
1. B6  1.08 nM
2. B5  0.764 nM
3. B7  0.606 nM

In order of rising “Maximum MFI” value:
1. B5  396000 MFI
2. B7  404000 MFI
3. B6  419000 MFI

Target: T1, human PD-L1 on CHO-K1 cells …
Test: flow cytometry on CHO-K1 cells overexpressing human PD-L1 (CHO-K1/hPD-L1)
Remark: another data set of the same source
Experimental: as §1

In order of falling EC50:
1. B8  0.83 nM
2. B1  0.79 nM

In order of falling “Maximum MFI” value:
1. B8  24600 MFI
2. B1  23700 MFI

Target: T2, human CD73 on CHO-K1 cells overexpressing human CD73 (human, UniProt P21589 27-549)
T2 construct: whole, on cells; also called CHO-K1-hCD73
T2 sequence (looked up): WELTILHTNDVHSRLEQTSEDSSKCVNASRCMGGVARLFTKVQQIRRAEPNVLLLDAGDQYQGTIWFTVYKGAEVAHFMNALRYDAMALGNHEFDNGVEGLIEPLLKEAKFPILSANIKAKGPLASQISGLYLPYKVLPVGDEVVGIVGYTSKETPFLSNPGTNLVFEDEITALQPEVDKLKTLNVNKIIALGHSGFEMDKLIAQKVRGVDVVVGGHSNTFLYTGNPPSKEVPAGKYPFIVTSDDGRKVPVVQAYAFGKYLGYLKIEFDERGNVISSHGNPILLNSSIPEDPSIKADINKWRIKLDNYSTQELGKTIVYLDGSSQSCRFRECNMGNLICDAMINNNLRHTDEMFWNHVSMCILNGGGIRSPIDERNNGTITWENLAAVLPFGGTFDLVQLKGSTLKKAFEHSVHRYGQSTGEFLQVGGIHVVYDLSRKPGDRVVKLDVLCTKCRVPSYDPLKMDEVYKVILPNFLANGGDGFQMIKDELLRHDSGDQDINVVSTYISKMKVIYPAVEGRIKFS
Test: flow cytometry on CHO-K1 cells overexpressing human CD73 (CHO-K1-hCD73)
Experimental: In order to investigate the binding activity of the CD73×PD-L1 bispecific antibody to human CD73 and PD-L1, the binding experiment at the cellular level was performed using CHO-K1 cell strains overexpressing human CD73 or PD-L1 (CHO-K1-hCD73 or CHO-K1-hPD-L1). Briefly, the CHO-K1-hCD73 and CHO-K1-hPD-L1 cells were digested and resuspended in an F-12K complete medium, and the cell density was adjusted to 1×10⁶ cells/mL. The cells were seeded in a 96-well V-bottom plate (Corning, #3894) at 100 μL/well, followed by the addition at 100 μL/well and centrifugation at 500 g at 4° C. for 5 min, and then the supernatant was discarded. Antibodies were 3-fold diluted to a maximum final concentration of 50 nM, and a total of 8 concentrations were set. 100 μL of the diluted antibodies was added to the cells, and the cells were incubated away from light at 4° C for 1 h. Thereafter, the cells in each well were rinsed twice with 100 μL of pre-cooled PBS, and centrifuged at 500 g at 4° C. for 5 min, and then the supernatant was discarded. Then 100 μL of a fluorescent secondary antibody (goat anti-human IgG (H+L) secondary antibody, Alexa Fluor® 488 conjugate, Invitrogen, #A11013, diluted at the ratio of 1:1000) was added to each well. The plate was incubated away from light at 4° C. for 30 min. The cells in each well were then rinsed twice with 200 μL of pre-cooled PBS and centrifuged at 500 g at 4° C. for 5 min, and then the supernatant was discarded. Finally, the cells in each well were resuspended in 200 μL of pre-cooled PBS, and the fluorescence signal values were read using a BD FACS CANTOII.

In order of rising EC50:
1. B10  0.342 nM
2. B9  1.1 nM

Target: T3, cynomolgus monkey PD-L1 on CHO-K1 cells overexpressing cynomolgus monkey PD-L1 (cynomolgus monkey, UniProt G7PSE7 19-290)
T3 construct: also called CHO-K1/cynoPD-L1; GenScript M00573
Test: flow cytometry on CHO-K1 cells overexpressing cynomolgus monkey PD-L1 (CHO-K1/cynoPD-L1)
Experimental: as §1

T3 sequence (G7PSE7 entry or part of it limits assumed): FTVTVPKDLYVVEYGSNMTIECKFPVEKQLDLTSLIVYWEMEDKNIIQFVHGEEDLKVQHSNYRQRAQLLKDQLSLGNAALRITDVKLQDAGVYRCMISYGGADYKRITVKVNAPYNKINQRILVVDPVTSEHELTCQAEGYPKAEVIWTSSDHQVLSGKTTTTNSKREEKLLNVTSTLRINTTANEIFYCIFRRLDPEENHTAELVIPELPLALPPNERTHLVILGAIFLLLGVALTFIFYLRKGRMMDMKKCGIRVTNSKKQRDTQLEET

In order of rising EC50:
1. B7  0.717 nM
2. B11  0.733 nM
3. B5  0.736 nM
4. B12  0.774 nM
5. B6  0.894 nM
6. B13  1.19 nM

In order of rising “Maximum MFI” value:
1. B12  11500 MFI
2. B7  11500 MFI
3. B5  11600 MFI
4. B6  11700 MFI
5. B13  11700 MFI
6. B11  11800 MFI

Target: T3, cynomolgus monkey PD-L1 on CHO-K1 cells …
Test: as above
Remark: another data set of the same source
Experimental: as §1

In order of rising EC50:
1. B8  0.376 nM
2. B2  0.4 nM
3. B3  0.4 nM
4. B1  0.421 nM
5. B4  0.7 nM

In order of rising “Maximum MFI” value:
1. B1  8440 MFI
2. B3  8480 MFI
3. B4  8780 MFI
4. B2  8840 MFI

Target: T1, human PD-L1 on CHO-K1 cells …
Test: flow cytometry on CHO-K1 cells overexpressing human PD-L1 (CHO-K1/hPD-L1) [continued) E]
Experimental: as §1

B13 showed an EC50 of 0.914 nM.

For B13, the “Maximum MFI” value was 363000 MFI.

Target: T1, human PD-L1 on CHO-K1 cells …
Test: flow cytometry on CHO-K1 cells overexpressing human PD-L1 (CHO-K1/hPD-L1) [continued) D]
Experimental: as §1

In order of falling EC50:
1. B12  0.974 nM
2. B6  0.944 nM
3. B11  0.787 nM

In order of rising “Maximum MFI” value:
1. B12  372000 MFI
2. B6  379000 MFI
3. B11  385000 MFI

Target: T4, human PD-L1 protein with histidine tag (ACROBiosystems #PD-1-H5258) (human, UniProt Q9NZQ7 19-238)
T4 construct: Bought protein; also called His PD-L1; human PD-L1 proteins; not shown: histidine tag
Test: BLI (Octet Red96e); His-tagged human PD-L1 captured on HIS1K sensor, antibody at 60 nM; 1:1 fit
Experimental: In this example, affinity determination was performed on the affinity-matured mutants of PR002082 using an Octet Red96e instrument. […] The binding kinetics between the antigen and the antibody was analyzed by the biolayer interferometry (BLI) technique using an Octet molecular interaction analyzer (ForteBio, model: Octet Red96e).
When the affinity of the antigen for the antibody was determined, the rotation speed of the sensor was set at 1000 rpm/min. The 2 HIS1K sensors placed in a column were first equilibrated for 10 min in test buffer, then His PD-L1 was captured with the HIS1K sensor at a capture height of 0.9-1.1 nm, then the HIS1K sensor was equilibrated for 2 min in the test buffer, then the HIS1K sensor was bound to the antigen-binding protein (60 nM and 0 nM) for 3 min, and finally the mixture was dissociated for 15 min. The HIS1K sensor was immersed in a 10 mM glycine solution (pH 1.5) for regeneration to elute the proteins bound to the sensor.
When data analysis was performed using Octet Data Analysis software (Fortebio, version 11.0), the reference signals were subtracted by a single reference mode (reference well), the data were fitted by a “1:1 Local/full fitting” method, and the kinetic parameters of the binding of the antigen to the antibody were calculated to obtain Kₒₙ (1/Ms) values, Kdis (1/s) values and KD (M) values.

T4 sequence (Q9NZQ7 19-238 limits assumed): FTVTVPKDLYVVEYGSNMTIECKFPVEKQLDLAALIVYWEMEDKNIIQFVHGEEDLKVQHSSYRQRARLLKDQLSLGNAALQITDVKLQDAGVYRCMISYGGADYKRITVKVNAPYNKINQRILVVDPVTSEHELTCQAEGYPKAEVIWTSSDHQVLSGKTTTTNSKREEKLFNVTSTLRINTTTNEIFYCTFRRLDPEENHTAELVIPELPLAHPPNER

In order of falling Kd:
1. B13  1.94 nM
2. B12  1.04 nM
3. B11  0.861 nM
4. B6  0.671 nM
5. B7  0.634 nM
6. B5  0.546 nM

In order of rising koff:
1. B7  0.000115 s⁻¹
2. B6  0.000121 s⁻¹
3. B5  0.000164 s⁻¹
4. B12  0.000179 s⁻¹
5. B11  0.000187 s⁻¹
6. B13  0.000227 s⁻¹

In order of falling kon:
1. B5  301000 M⁻¹ s⁻¹
2. B11  218000 M⁻¹ s⁻¹
3. B7  182000 M⁻¹ s⁻¹
4. B6  180000 M⁻¹ s⁻¹
5. B12  172000 M⁻¹ s⁻¹
6. B13  117000 M⁻¹ s⁻¹
